Test results as given in the supplement of paper PMC9112550, “Optimization of the antimicrobial peptide Bac7 by deep mutational scanning” (BMC Biology, 2022).
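Further: peptides expressed intracellularly from a pBAD plasmid library in pooled LB shake-flask culture, induced with 0.3% L-arabinose, DNA abundance read by NGS, three biological replicates, DESeq2 with apeglm shrinkage.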

These sequences were tested on Escherichia coli TOP10 (assay: shrunken log2 fold change of peptide-encoding DNA abundance (4.5 h post-induction vs induction); higher = less antimicrobial activity (less host growth inhibition)). Conditions: time post-induction: 4.5 h; library: site-saturation at positions 5, 18, 19, 20.
With RRIRYRPPRLPRPRPRPGEMPRP the “shrunken log2 fold change” value was -0.0218. With RRIRCRPPRLPRPRPRPWDAPRP the “shrunken log2 fold change” value was -0.758. With RRIRPRPPRLPRPRPRPWAFPRP the “shrunken log2 fold change” value was 0.144. In the case of RRIRNRPPRLPRPRPRPTCGPRP, the “shrunken log2 fold change” value is reported as 0.073. With RRIRVRPPRLPRPRPRPYLGPRP the “shrunken log2 fold change” value was -0.177. With RRIRNRPPRLPRPRPRPLILPRP the “shrunken log2 fold change” value was -0.303. For RRIRMRPPRLPRPRPRPHIQPRP, the “shrunken log2 fold change” value was -0.421. In the case of RRIRSRPPRLPRPRPRPYHAPRP, the “shrunken log2 fold change” value is reported as -8.39e-05. RRIRVRPPRLPRPRPRPTAVPRP was tested, and the “shrunken log2 fold change” value was 0.327. In the case of RRIRHRPPRLPRPRPRPRVKPRP, the “shrunken log2 fold change” value is reported as -0.00109. For RRIRKRPPRLPRPRPRPRTKPRP, the “shrunken log2 fold change” value was 1.08. For RRIRNRPPRLPRPRPRPCPAPRP, the “shrunken log2 fold change” value was 0.203. For RRIRDRPPRLPRPRPRPPTQPRP, the “shrunken log2 fold change” value was 0.285. RRIRIRPPRLPRPRPRPQRTPRP was tested, and the “shrunken log2 fold change” value was 0.0834. RRIRQRPPRLPRPRPRPYMIPRP was tested, and the “shrunken log2 fold change” value was 0.00875. For RRIRERPPRLPRPRPRPCRTPRP, the “shrunken log2 fold change” value was -0.203. For RRIRVRPPRLPRPRPRPPIDPRP, the “shrunken log2 fold change” value was 0.0721. In the case of RRIRARPPRLPRPRPRPIEAPRP, the “shrunken log2 fold change” value is reported as 0.213. RRIRQRPPRLPRPRPRPQYYPRP was tested, and the “shrunken log2 fold change” value was -0.243. RRIRGRPPRLPRPRPRPYCPPRP was tested, and the “shrunken log2 fold change” value was -0.333. In the case of RRIRYRPPRLPRPRPRPVIEPRP, the “shrunken log2 fold change” value is reported as -0.424. With RRIRYRPPRLPRPRPRPHHDPRP the “shrunken log2 fold change” value was -0.917. In the case of RRIRGRPPRLPRPRPRPNQWPRP, the “shrunken log2 fold change” value is reported as 0.259. For RRIRPRPPRLPRPRPRPFRFPRP, the “shrunken log2 fold change” value was 0.0991. In the case of RRIRWRPPRLPRPRPRPVYYPRP, the “shrunken log2 fold change” value is reported as -0.412. For RRIRVRPPRLPRPRPRPGKGPRP, the “shrunken log2 fold change” value was 0.0187. With RRIRKRPPRLPRPRPRPDREPRP the “shrunken log2 fold change” value was 0.186. With RRIRIRPPRLPRPRPRPGCKPRP the “shrunken log2 fold change” value was -0.0374. In the case of RRIRFRPPRLPRPRPRPATMPRP, the “shrunken log2 fold change” value is reported as -0.0804. With RRIRGRPPRLPRPRPRPTNVPRP the “shrunken log2 fold change” value was 0.141. RRIRKRPPRLPRPRPRPMLHPRP was tested, and the “shrunken log2 fold change” value was 0.164. RRIRIRPPRLPRPRPRPYCFPRP was tested, and the “shrunken log2 fold change” value was -0.834. RRIRARPPRLPRPRPRPMPPPRP was tested, and the “shrunken log2 fold change” value was 0.3. With RRIRCRPPRLPRPRPRPNINPRP the “shrunken log2 fold change” value was -0.181. RRIRWRPPRLPRPRPRPWPSPRP was tested, and the “shrunken log2 fold change” value was 0.018. For RRIRHRPPRLPRPRPRPKDAPRP, the “shrunken log2 fold change” value was -0.112. RRIRQRPPRLPRPRPRPSPNPRP was tested, and the “shrunken log2 fold change” value was 0.16. For RRIRSRPPRLPRPRPRPNLTPRP, the “shrunken log2 fold change” value was -0.15. With RRIRMRPPRLPRPRPRPNPWPRP the “shrunken log2 fold change” value was 0.123. With RRIRSRPPRLPRPRPRPQVLPRP the “shrunken log2 fold change” value was -0.0779. With RRIRMRPPRLPRPRPRPIHLPRP the “shrunken log2 fold change” value was -0.209. RRIRYRPPRLPRPRPRPYGQPRP was tested, and the “shrunken log2 fold change” value was -0.0112. For RRIRRRPPRLPRPRPRPVNYPRP, the “shrunken log2 fold change” value was -0.291. With RRIRWRPPRLPRPRPRPIVVPRP the “shrunken log2 fold change” value was -0.0496. RRIRRRPPRLPRPRPRPTRCPRP was tested, and the “shrunken log2 fold change” value was 0.661. With RRIRVRPPRLPRPRPRPPITPRP the “shrunken log2 fold change” value was -0.117. For RRIRWRPPRLPRPRPRPTQRPRP, the “shrunken log2 fold change” value was 0.133. With RRIRYRPPRLPRPRPRPCATPRP the “shrunken log2 fold change” value was 0.0757. For RRIRKRPPRLPRPRPRPNYYPRP, the “shrunken log2 fold change” value was -0.305. In the case of RRIRHRPPRLPRPRPRPEPHPRP, the “shrunken log2 fold change” value is reported as 0.113. RRIRTRPPRLPRPRPRPNLGPRP was tested, and the “shrunken log2 fold change” value was 0.152. With RRIRRRPPRLPRPRPRPREHPRP the “shrunken log2 fold change” value was 0.673. RRIRKRPPRLPRPRPRPNRAPRP was tested, and the “shrunken log2 fold change” value was -0.0335. In the case of RRIRSRPPRLPRPRPRPRNIPRP, the “shrunken log2 fold change” value is reported as -0.28. RRIRVRPPRLPRPRPRPKSMPRP was tested, and the “shrunken log2 fold change” value was -0.362. With RRIRNRPPRLPRPRPRPRLSPRP the “shrunken log2 fold change” value was 0.0939. In the case of RRIRHRPPRLPRPRPRPGSNPRP, the “shrunken log2 fold change” value is reported as 0.0117. With RRIRHRPPRLPRPRPRPVARPRP the “shrunken log2 fold change” value was 0.227. In the case of RRIRYRPPRLPRPRPRPCDMPRP, the “shrunken log2 fold change” value is reported as -0.01. In the case of RRIRLRPPRLPRPRPRPKMLPRP, the “shrunken log2 fold change” value is reported as -0.0541. In the case of RRIRPRPPRLPRPRPRPHTDPRP, the “shrunken log2 fold change” value is reported as -0.327. In the case of RRIRIRPPRLPRPRPRPHHIPRP, the “shrunken log2 fold change” value is reported as -0.641. With RRIRKRPPRLPRPRPRPNDFPRP the “shrunken log2 fold change” value was -0.0772. For RRIRWRPPRLPRPRPRPSGTPRP, the “shrunken log2 fold change” value was 0.0142. In the case of RRIRRRPPRLPRPRPRPVCTPRP, the “shrunken log2 fold change” value is reported as 0.575. RRIRYRPPRLPRPRPRPMVLPRP was tested, and the “shrunken log2 fold change” value was -0.0934. RRIRMRPPRLPRPRPRPHEIPRP was tested, and the “shrunken log2 fold change” value was 0.356. For RRIRPRPPRLPRPRPRPNRCPRP, the “shrunken log2 fold change” value was 0.0358. RRIRVRPPRLPRPRPRPYMIPRP was tested, and the “shrunken log2 fold change” value was -0.904. In the case of RRIRARPPRLPRPRPRPYSHPRP, the “shrunken log2 fold change” value is reported as -0.171. For RRIRHRPPRLPRPRPRPFCFPRP, the “shrunken log2 fold change” value was -0.215. With RRIRPRPPRLPRPRPRPHYVPRP the “shrunken log2 fold change” value was -0.348. For RRIRARPPRLPRPRPRPGWSPRP, the “shrunken log2 fold change” value was 0.57. With RRIRVRPPRLPRPRPRPRTIPRP the “shrunken log2 fold change” value was -0.0961. In the case of RRIRIRPPRLPRPRPRPGRGPRP, the “shrunken log2 fold change” value is reported as 0.268. With RRIRVRPPRLPRPRPRPLFYPRP the “shrunken log2 fold change” value was -0.22. In the case of RRIRERPPRLPRPRPRPQYGPRP, the “shrunken log2 fold change” value is reported as -0.0797. RRIRRRPPRLPRPRPRPTHYPRP was tested, and the “shrunken log2 fold change” value was 1.2. RRIRVRPPRLPRPRPRPMAAPRP was tested, and the “shrunken log2 fold change” value was 0.287. RRIRLRPPRLPRPRPRPKMRPRP was tested, and the “shrunken log2 fold change” value was 0.608. In the case of RRIRFRPPRLPRPRPRPTLPPRP, the “shrunken log2 fold change” value is reported as 0.23. In the case of RRIRPRPPRLPRPRPRPASWPRP, the “shrunken log2 fold change” value is reported as 0.362. In the case of RRIRMRPPRLPRPRPRPWVRPRP, the “shrunken log2 fold change” value is reported as 0.0882. In the case of RRIRVRPPRLPRPRPRPVSSPRP, the “shrunken log2 fold change” value is reported as 0.105. With RRIRPRPPRLPRPRPRPFKIPRP the “shrunken log2 fold change” value was 0.0869. In the case of RRIRQRPPRLPRPRPRPQSAPRP, the “shrunken log2 fold change” value is reported as -0.08. In the case of RRIRYRPPRLPRPRPRPHHHPRP, the “shrunken log2 fold change” value is reported as -1.09. For RRIRGRPPRLPRPRPRPEGQPRP, the “shrunken log2 fold change” value was 1.13. RRIRQRPPRLPRPRPRPAKWPRP was tested, and the “shrunken log2 fold change” value was -0.0192. For RRIRFRPPRLPRPRPRPRPHPRP, the “shrunken log2 fold change” value was 0.355. With RRIRYRPPRLPRPRPRPCNYPRP the “shrunken log2 fold change” value was -0.87. With RRIRWRPPRLPRPRPRPHHPPRP the “shrunken log2 fold change” value was 0.0415. With RRIRIRPPRLPRPRPRPQWRPRP the “shrunken log2 fold change” value was -0.191. In the case of RRIRYRPPRLPRPRPRPCDFPRP, the “shrunken log2 fold change” value is reported as -0.227. RRIRNRPPRLPRPRPRPDIIPRP was tested, and the “shrunken log2 fold change” value was -0.0869. RRIRIRPPRLPRPRPRPVKIPRP was tested, and the “shrunken log2 fold change” value was 0.0113. RRIRNRPPRLPRPRPRPNIQPRP was tested, and the “shrunken log2 fold change” value was -0.748. In the case of RRIRFRPPRLPRPRPRPAFMPRP, the “shrunken log2 fold change” value is reported as -0.164. For RRIRVRPPRLPRPRPRPKRSPRP, the “shrunken log2 fold change” value was 0.112. For RRIRPRPPRLPRPRPRPDVSPRP, the “shrunken log2 fold change” value was 0.0525. In the case of RRIRVRPPRLPRPRPRPILQPRP, the “shrunken log2 fold change” value is reported as -0.399. RRIRHRPPRLPRPRPRPTIQPRP was tested, and the “shrunken log2 fold change” value was -0.169. RRIRVRPPRLPRPRPRPTCLPRP was tested, and the “shrunken log2 fold change” value was 0.332. RRIRDRPPRLPRPRPRPSFVPRP was tested, and the “shrunken log2 fold change” value was -0.0915. In the case of RRIRTRPPRLPRPRPRPGCRPRP, the “shrunken log2 fold change” value is reported as 0.235. With RRIRRRPPRLPRPRPRPERSPRP the “shrunken log2 fold change” value was 0.0187. In the case of RRIRFRPPRLPRPRPRPTHPPRP, the “shrunken log2 fold change” value is reported as -0.0806. RRIRIRPPRLPRPRPRPFFRPRP was tested, and the “shrunken log2 fold change” value was -0.636. With RRIRQRPPRLPRPRPRPFGWPRP the “shrunken log2 fold change” value was -0.0154. RRIRRRPPRLPRPRPRPKTIPRP was tested, and the “shrunken log2 fold change” value was 0.0447. With RRIRVRPPRLPRPRPRPWNDPRP the “shrunken log2 fold change” value was -0.0722. With RRIRARPPRLPRPRPRPRWGPRP the “shrunken log2 fold change” value was 0.425. In the case of RRIRIRPPRLPRPRPRPWMDPRP, the “shrunken log2 fold change” value is reported as 0.0312. With RRIRMRPPRLPRPRPRPASAPRP the “shrunken log2 fold change” value was 1.09. RRIRCRPPRLPRPRPRPSRSPRP was tested, and the “shrunken log2 fold change” value was -0.136. RRIRRRPPRLPRPRPRPIDVPRP was tested, and the “shrunken log2 fold change” value was -0.00284. For RRIRGRPPRLPRPRPRPMEEPRP, the “shrunken log2 fold change” value was 0.48. RRIRERPPRLPRPRPRPVMMPRP was tested, and the “shrunken log2 fold change” value was -0.144. RRIRLRPPRLPRPRPRPFQEPRP was tested, and the “shrunken log2 fold change” value was -0.274. RRIRRRPPRLPRPRPRPCFQPRP was tested, and the “shrunken log2 fold change” value was -0.0758. For RRIRERPPRLPRPRPRPTTIPRP, the “shrunken log2 fold change” value was -0.627. RRIRSRPPRLPRPRPRPMYNPRP was tested, and the “shrunken log2 fold change” value was -0.557. In the case of RRIRARPPRLPRPRPRPYYGPRP, the “shrunken log2 fold change” value is reported as -0.363. In the case of RRIRFRPPRLPRPRPRPHVPPRP, the “shrunken log2 fold change” value is reported as -0.315. RRIRVRPPRLPRPRPRPCPCPRP was tested, and the “shrunken log2 fold change” value was -0.151.
